Values of other authors as cited in article PMC10889394.

Legend:
TIMP-2 (Homo sapiens) = TIMP-2 (Homo sapiens) (UniProt P16035)
[1] = molecular target: cystatin E (Homo sapiens) (UniProt Q15828)
[2] = molecular target: recombinant hirudin variant 1 (Hirudo medicinalis) (UniProt P01050)
[3] = molecular target: SFTI-1 (Helianthus annuus) (UniProt Q4GWU5)
[4] = molecular target: SFTI-TCTR-N12N14 (synthetic construct)

Chain of β-trypsin (P00760 149-246): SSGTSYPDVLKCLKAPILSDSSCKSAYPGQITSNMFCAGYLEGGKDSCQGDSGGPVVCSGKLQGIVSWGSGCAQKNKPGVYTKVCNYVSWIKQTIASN
Chain of TIMP-2 (Homo sapiens) (P16035 27-220): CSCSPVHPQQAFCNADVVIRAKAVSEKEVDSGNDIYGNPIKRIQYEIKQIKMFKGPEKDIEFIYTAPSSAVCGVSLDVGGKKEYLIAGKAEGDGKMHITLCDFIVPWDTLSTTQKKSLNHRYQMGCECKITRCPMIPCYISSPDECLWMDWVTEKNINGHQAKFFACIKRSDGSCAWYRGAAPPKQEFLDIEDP
Chain of cystatin E (Homo sapiens) (Q15828 29-149): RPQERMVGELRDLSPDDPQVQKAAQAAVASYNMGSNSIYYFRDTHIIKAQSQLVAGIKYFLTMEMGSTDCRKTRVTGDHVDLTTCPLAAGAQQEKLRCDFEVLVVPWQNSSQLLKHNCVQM

MMP-14 catalytic domain (from UniProt P50281)
Ki (TIMP-2 (Homo sapiens)): 0.104 nM

legumain (from UniProt Q99538)
Ki [1]: 0.011 nM

thrombin (from UniProt P00734)
Ki [2]: 0.00018 nM

β-trypsin (from UniProt P00760)
Ki [3]: 0.017 nM
Ki [4]: 0.7 nM
